Assay results reported in US20080312152A1, “Glycosylated Probnp” (priority 2005, published 2008).
“Also recorded” adds a separate entry of the source.

Legend:
[1] = target: T1, GC-A receptor (Homo sapiens, UniProt P16066); test: Competitive binding to GC-A receptor (FIG. 7); details: glycosylated recombinant human proBNP vs hBNP
T1 sequence (P16066 33-1061): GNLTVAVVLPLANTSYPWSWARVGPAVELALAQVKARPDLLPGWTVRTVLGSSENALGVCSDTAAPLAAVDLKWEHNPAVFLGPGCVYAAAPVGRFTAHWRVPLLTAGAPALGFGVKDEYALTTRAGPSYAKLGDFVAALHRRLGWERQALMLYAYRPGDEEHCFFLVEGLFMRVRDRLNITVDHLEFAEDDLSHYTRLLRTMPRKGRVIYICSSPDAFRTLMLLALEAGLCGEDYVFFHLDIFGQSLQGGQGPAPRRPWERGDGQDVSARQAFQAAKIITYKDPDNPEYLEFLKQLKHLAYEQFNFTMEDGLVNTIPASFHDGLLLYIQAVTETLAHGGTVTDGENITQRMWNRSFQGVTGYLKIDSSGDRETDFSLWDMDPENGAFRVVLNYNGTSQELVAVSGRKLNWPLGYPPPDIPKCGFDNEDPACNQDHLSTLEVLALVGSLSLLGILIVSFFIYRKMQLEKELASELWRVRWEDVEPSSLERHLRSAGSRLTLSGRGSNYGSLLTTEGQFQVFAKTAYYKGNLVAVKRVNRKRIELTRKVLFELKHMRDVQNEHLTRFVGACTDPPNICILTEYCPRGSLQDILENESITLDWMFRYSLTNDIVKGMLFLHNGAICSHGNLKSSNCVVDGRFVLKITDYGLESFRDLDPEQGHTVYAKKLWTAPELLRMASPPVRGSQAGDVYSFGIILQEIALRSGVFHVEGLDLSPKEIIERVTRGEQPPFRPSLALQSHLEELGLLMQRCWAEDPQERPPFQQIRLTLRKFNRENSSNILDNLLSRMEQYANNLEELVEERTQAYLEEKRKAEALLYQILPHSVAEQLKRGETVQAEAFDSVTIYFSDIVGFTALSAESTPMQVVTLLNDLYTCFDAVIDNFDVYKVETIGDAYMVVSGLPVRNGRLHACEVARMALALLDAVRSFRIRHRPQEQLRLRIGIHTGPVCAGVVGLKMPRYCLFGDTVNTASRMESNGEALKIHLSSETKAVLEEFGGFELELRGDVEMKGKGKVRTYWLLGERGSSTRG
Description: FIG. 7 is a graph showing competitive binding of glycosylated recombinant human proBNP to GC-A receptor relative to hBNP.

[2] = Pharmacokinetics after i.v. bolus in cynomolgus monkeys (FIGS. 9, 10); assay type: in vivo, cynomolgus monkey; details: for circulating (plasma) half-life compared to hBNP: i.v., male Cyno monkeys
Description: Six adult male cynomolgus monkeys (5-6 kg) from the same colony were randomly selected for this study. In the morning of the experiment day, each monkey was quickly anesthetized by inhalation of 5% isoflurance/95% oxygen. Once the animal was unconscious, the isoflurance was reduced to 1.5% and a sterile catheter was inserted into the urinary bladder. Another catheter was connected to a cephalic vein in the right or left arm of the monkey for compound delivery. The anesthesia was discontinued. The conscious monkey was seated in a restraining chair and allowed to stabilize for 1 hour. The conscious monkey received two bolus doses (1 nmol/kg and 3 nmol/kg) of each human BNP analog in 1 ml of saline via cephalic vein injection followed by a flush with 3 ml of saline. One hour of washing-out period was required between the two administrations. Two ml of blood were drawn into a EDTA tube containing 150 kallikrein-inactivating units aprotonin via a cephalic vein in the another arm of the monkey at the following 8 time points: baseline (within 2 min prior to dosing), 2, 5, 10, 15, 30, 60 and 120 min. The collected samples were kept on ice prior to centrifugation at 4° C. The plasma from each time point was aliquoted to 4 Eppendorff tubes with approximately […]. For urine collection, the bladder was emptied and flushed with 5 ml of sterile water. The urine was collected to a 15 ml regular polypropylene tube in every 20 min at the following time points: −60, −40, −20, 0, 20, 40, 60, 80, 100 and 120 min. Weighing of tube was required before and after collection. The urine sample from each time point was aliquoted to 4 Eppendorf tubes with […]. All plasma and urine samples were kept at −80° C. and delivered on dry ice. Material supply: […] of hBNP were required for 8 cynos with the body weight of 6 kg at the doses of 1 nmol/kg and 3 nmol/kg, respectively. The material for each dose was weighed to a 15 ml sterile tube and dissolved in 8 ml of sterile saline prior to injection. Approximately 1 ml of the material at each dose was injected to each animal. The injection volume (ml) of the material to each animal was equal to animal body weight (kg) divided by six.

[3] = system: cGMP; test: cGMP levels in plasma and urine after i.v. bolus in cynomolgus monkeys; assay type: in vivo, cynomolgus monkey
Description: Six adult male cynomolgus monkeys (5-6 kg) from the same colony were randomly selected for this study. In the morning of the experiment day, each monkey was quickly anesthetized by inhalation of 5% isoflurance/95% oxygen. Once the animal was unconscious, the isoflurance was reduced to 1.5% and a sterile catheter was inserted into the urinary bladder. Another catheter was connected to a cephalic vein in the right or left arm of the monkey for compound delivery. The anesthesia was discontinued. The conscious monkey was seated in a restraining chair and allowed to stabilize for 1 hour. The conscious monkey received two bolus doses (1 nmol/kg and 3 nmol/kg) of each human BNP analog in 1 ml of saline via cephalic vein injection followed by a flush with 3 ml of saline. One hour of washing-out period was required between the two administrations. Two ml of blood were drawn into a EDTA tube containing 150 kallikrein-inactivating units aprotonin via a cephalic vein in the another arm of the monkey at the following 8 time points: baseline (within 2 min prior to dosing), 2, 5, 10, 15, 30, 60 and 120 min. The collected samples were kept on ice prior to centrifugation at 4° C. The plasma from each time point was aliquoted to 4 Eppendorff tubes with approximately […]. For urine collection, the bladder was emptied and flushed with 5 ml of sterile water. […]

[4] = target: T1, GC-A receptor; test: Cyclic GMP release from cells expressing the human GC-A receptor; assay type: cell-based; details: vs hBNP
Description: Pursuant to the present invention, the effects of hBNP, unglycosylated proBNP, and O-link glycosylated proBNP on cyclic GMP release from cells expressing the human GC-A receptor were determined.

[5] = target: T2, NPR-A receptor (Homo sapiens, UniProt P16066); test: NPR-A activation in human aorta endothelial cells (FIG. 8); assay type: cell-based
T2 construct: endogenous in cells; host or cells: human aorta endothelial cells
T2 sequence (P16066 33-1061): T1 sequence (P16066 33-1061)
Description: The graph provides a direct activity comparison of hBNP relative to proBNP.
With respect to proBNP and BNP, total “Natriuretic Activity” in a blood sample is defined by the cumulative activity of proBNP and hBNP. When measuring against this receptor however it should be appreciated that the activity of other relevant natriuretic peptides, such as ANP and proANP can and should also be taken into consideration.

[6] = BNP as active hormone; cited from earlier work

competitive binding to GC-A receptor relative to hBNP [1] | inducing cellular cyclic GMP release (receptor activation) [4] | potency in cyclic GMP release assay [4] | activity against the NPR-A receptor [5] | Compound | PK profile compared to BNP ([2]; conscious restrained cynomolgus monkeys, i.v. bolus) | metabolism in the blood ([2]; cynomolgus monkeys) | circulating (plasma) half-life compared to hBNP [2] | circulating (plasma) half-life compared to hBNP ([2]; listed as glycosylated proBNP) | effects on cGMP levels in plasma compared to BNP ([3]; plasma) | effects on cGMP levels in urine compared to BNP ([3]; urine) | potency on NPR-A activation compared to hBNP [5] | half-life [6]
less active | equivalent to hBNP | less potent than hBNP | exhibit activity | proBNP: 108 amino acid human BNP precursor protein, O-link glycosylated, recombinantly expressed in CHO cells | extended PK profile | not metabolized in the blood | longer plasma half-life; also recorded: substantial increase in circulating half-life | greater than that of hBNP | reduced effects | reduced effects | lower activity than hBNP; also recorded: reduced potency | 
 |  |  |  | CC[C@H](C)[C@@H]1NC(=O)[C@H](CCCNC(=N)N)NC(=O)[C@H](CC(=O)O)NC(=O)[C@H](CCSC)NC(=O)[C@H](CCCCN)NC(=O)[C@H](CCCNC(=N)N)NC(=O)CNC(=O)[C@H](Cc2ccccc2)NC(=O)[C@@H](NC(=O)CNC(=O)[C@H](CO)NC(=O)CNC(=O)[C@H](CCC(N)=O)NC(=O)[C@@H](NC(=O)[C@H](CCSC)NC(=O)[C@H](CCCCN)NC(=O)[C@@H]2CCCN2C(=O)[C@@H](N)CO)C(C)C)CSSC[C@@H](C(=O)N[C@@H](CCCCN)C(=O)N[C@H](C(=O)N[C@@H](CC(C)C)C(=O)N[C@@H](CCCN=C(N)N)C(=O)N[C@@H](CCCN=C(N)N)C(=O)N[C@@H](Cc2cnc[nH]2)C(=O)O)C(C)C)NC(=O)CNC(=O)[C@H](CC(C)C)NC(=O)CNC(=O)[C@H](CO)NC(=O)[C@H](CO)NC(=O)[C@H](CO)NC(=O)[C@H](CO)NC1=O [hBNP] |  |  |  |  |  |  |  | approximately 20 minutes
